# CN114685674A
# Target: VEGF165 (UniProt P15692)
# Assay: cell-based or functional assay
# Chain of UniProt P15692 (P15692 other isoform, or with tags, fused parts or gaps): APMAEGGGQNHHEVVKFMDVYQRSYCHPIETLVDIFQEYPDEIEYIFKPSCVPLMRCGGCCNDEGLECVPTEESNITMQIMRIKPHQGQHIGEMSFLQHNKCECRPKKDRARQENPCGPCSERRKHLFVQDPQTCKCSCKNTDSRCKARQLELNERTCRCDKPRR
substance,measurement,value
Conbercept(康柏西普) (Fc fusion),HUVEC细胞增殖抑制 EC50,0.221 nM
